Test results: US20230203142A1, “TREATMENT OF METABOLIC DISORDERS THROUGH THE TARGETING OF A NOVEL CIRCULATING HORMONE COMPLEX” (The President and Fellows of Harvard College, priority 2020, published 2023)
Values belong to the molecule of their own block, whether it stands above or below them.

How the values were obtained:
Human NDPK-A = target: T1, Human NDPK-A (Homo sapiens, UniProt P15531); assay: Microscale Thermophoresis (MST) one-to-one protein interaction with NDPK; details: recombinant proteins, binding to NDPK
T1 construct: purchased Acro Biosystems NM1-H5147
Description: Additionally, one-to-one recombinant protein interaction assays were performed using Microscale Thermophoresis (MST) to independently validate the interactions between each of the proposed complex components. MST is a technology for the interaction analysis of biomolecules. MST is the directed movement of particles in a microscopic temperature gradient. Any change of the hydration shell of biomolecules due to changes in their structure/conformation results in a relative change of the movement along the temperature gradient and is used to determine binding affinities. MST allows measurement of interactions directly in solution without the need of immobilization to a surface (immobilization-free technology).
To perform this technique, proteins were desalted and buffer exchanged into PBS prior to labeling. […] Experiments were conducted independently with each of NDPK and ADK labeled with each kit (i.e., experiments were performed with lysine-labeled, cysteine-labeled, and His-labeled versions of each protein to confirm the site of labeling was not influencing detected interaction). […] Concentration of labeled proteins ranged from 12 nM to 20 nM, as determined by MST quantification to obtain a fluorescence intensity of ˜350 from each capillary tube. […]

recombinant NDPK = target: T2, recombinant NDPK (Homo sapiens, UniProt P15531); assay: Recombinant kinase activity assay, NDPK (ADP-Glo/Kinase-Glo); format: biochemical; details: recombinant NDPK plus the added component
T2 construct: purchased Acro Biosystems NM1-H5147
Description: (§1) An on-bead kinase assay was developed to measure the activity of endogenous NDPK and ADK pulled down from serum using a-Ab or c-Ab conjugated beads. Both NDPK and ADK are bi-directional kinases that will produce ATP or ADP depending on the substrates provided (FIGS. 4B-C). Kinase activity assays were performed in 384-well plates in reaction buffer (PBS with 0.1% BSA, 0.01% F-127, 5 mM MgCl2). Experiments with recombinant proteins were performed at final concentrations of 40 μg/ml for ADK and FABP4, and 20 ug/ml for NDPK, and a reaction volume of 10 μl. Antibodies were used at a final concentration of 80 ug/ml. Substrates were added in equimolar ratios depending on the kinase being assayed and the direction of the reaction in serial dose responses, with the highest concentration of 5 μM. Proteins and substrates were incubated for 1 hr at room temperature, and ADP and ATP production were monitored using ADP-Glo and Kinase-Glo kits, respectively, according the manufacturer instructions (V6930 and V6711 Promega, USA). Luminescence was quantified using a SpectraMax Paradigm plate reader 30 min after the addition of substrate. Consistent with the MS results, ADK activity, as measured by generation of ATP, was specifically observed in samples pulled down with a-Ab but not c-Ab (FIG. 5A). […] To test this possibility, the ATP and ADP generating activity of recombinant ADK was assessed in the presence of the proposed complex components.

WT NOD mice = assay: Acute FABP4 administration; format: in vivo, mouse; details: 20 minutes post-injection, vs vehicle-injected controls
Description: (§2) Given the essential role for appropriate beta cell function and insulin secretion in the pathogenesis of diabetes, the pancreata of FABP4 deficient (FABP4^−/−) mice were examined for beta cell mass and insulin content. Animal care and experimental procedures were performed with approval from animal care committees of Harvard University. All mice were housed on a 12-hour light/dark cycle with ad libitum access to chow (PicoLab 5058 LabDiet) and water. FABP4−/− and WT mice were littermates obtained from heterozygous breeding. High fat diet (HFD) fed mice were provided ad libitum access to HFD (60% kcal from fat; Research Diets Inc., D12492i) for 14 weeks beginning at 4 weeks of age. Pancreata and isolated islets were obtained from 7-8-week-old male mice. Blood was collected every other week for 6 hour fasting plasma insulin and FABP4 levels. For acute FABP4 treatment, 10 μg of human recombinant FABP4 (produced in-house) or sterile PBS was injected intraperitoneally. Blood was collected from the tail vein at 0, 10, 20, 30, 60, 120, 240- and 360-minutes post injection for measurement of blood glucose, plasma insulin, and FABP4 levels.

WT mice = assay: Acute FABP4 administration; format: in vivo, mouse; details: 20 minutes post-injection, vs vehicle-injected controls
Description: as §2

recombinant ADK = target: T3, recombinant ADK (Homo sapiens, UniProt P55263); assay: Recombinant kinase activity assay, ADK (Kinase-Glo); format: biochemical; details: recombinant ADK plus the added component
T3 construct: purchased Novus Biologicals or R&D Systems NBP1-44382 or 8024-AK-025
Description: as §1

primary mouse islets = assay: Glucose-stimulated insulin secretion (GSIS), mouse islets; format: cell-based
Description: Primary islet isolation from mice was performed as previously described (Batchuluun et al., 2018; Prentice et al., 2014) and GSIS was assessed following acute treatment with NDPK-ADK in the presence or absence of FABP4. Insulin secretion assays were performed as previously described (Prentice et al., 2014). For primary islets, 20 islets were hand-picked into 1.5 ml tubes, washed twice with Krebs Ringer Buffer (KRB) without glucose, and pre-incubated in 500 μl low glucose (LG; 2.8 mM) KRB for 1 hour at 37° C. KRB was then removed and 250 μl of fresh LG KRB added. Islets were incubated for 20 minutes at 37° C. Supernatant was collected and 250 μl high glucose (HG; 16.7 mM) KRB added. Islets were incubated for 20 minutes at 37° C. In conditions where KCl was used, HG KRB was collected, and 250 μl KC1 (16.7 mM glucose, 30 mM KCl) KRB added. Islets were incubated for 20 minutes at 37° C., and supernatant collected. Following the stimulation protocol, cells were lysed in 100 μl acid ethanol (70% ethanol, 1% HCl in water) and stored at 4° C. overnight. Samples were evaporated using a SpeedVac until dried, and resuspended in 60 μl ultrapure water. DNA was quantified by Nanodrop (ThermoFisher, USA). Insulin from supernatant was quantified using insulin HTRF (Insulin Ultrasensitive Assay kit 62IN2PEH; Cisbio, USA).

T2 sequence (P15531 whole entry): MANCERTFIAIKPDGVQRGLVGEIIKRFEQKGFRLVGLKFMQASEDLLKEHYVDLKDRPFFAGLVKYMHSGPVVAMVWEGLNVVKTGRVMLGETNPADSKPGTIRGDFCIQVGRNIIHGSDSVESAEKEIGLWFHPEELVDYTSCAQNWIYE
T1 sequence (P15531 whole entry): as above

Kd (Human NDPK-A): ~1.8 nM
activity of NDPK to generate ADP (recombinant NDPK): significantly reduced
capacity of NDPK to produce ATP (recombinant NDPK): no effect
B1: ADK: recombinant human adenosine kinase (Novus Biologicals or R&D Systems) (protein, listed as Homo sapiens)
chain: MAAAEEEPKPKKLKVEAPQALRENILFGMGNPLLDISAVVDKDFLDKYSLKPNDQILAEDKHKELFDELVKKFKVEYHAGGSTQNSIKVAQWMIQQPHKAATFFGCIGIDKFGEILKRKAAEAHVDAHYYEQNEQPTGTCAACITGDNRSLIANLAAANCYKKEKHLDLEKNWMLVEKARVCYIAGFFLTVSPESVLKVAHHASENNRIFTLNLSAPFISQFYKESLMKVMPYVDILFGNETEAATFAREQGFETKDIKEIAKKTQALPKMNSKRQRIVIFTQGRDDTIMATESEVTAFAVLDQDQKEIIDTNGAGDAFVGGFLSQLVSDKPLTECIRAGHYAASIIIRRTGCTFPEKPDFH

ADK activity to generate ATP (recombinant ADK): significantly increased
activity of NDPK to generate ADP (recombinant NDPK): not further influenced
capacity of NDPK to produce ATP (recombinant NDPK): no effect
B2: FABP4: human recombinant FABP4 (produced in-house) (protein)
chain: CDAFVGTWKLVSSENFDDYMKEVGVGFATRKVAGMAKPNMIISVNGDVITIKSESTFKNTEISFILGQEFDEVTADDRKVKSTITLDGGVLVHVQKWDGKSTTIKRKREDDKLVVECVMKGVTSTRVYERA
plasma insulin (WT NOD mice): significant reduction
blood glucose levels (WT mice): significantly increased
GSIS (primary mouse islets; primary / WT mouse islets): no effect
NDPK-ADK-enhanced GSIS response (primary mouse islets; primary mouse islets, added to NDPK-ADK): significantly blunted
